B1: TEKT4 (parent)
chain: LREKLLEAEQSLRNLEDIHMSLEK

Variants of: B1
Test: protein stability index of a GFP-peptide fusion (GPS, HEK-293T) (PSI 1-6); higher = more stable
Conditions: c terminus: a fixed tail appended
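Further: lentivirally expressed fusions sorted by FACS into six bins by GFP to DsRed ratio, PSI derived from sequencing read proportions per bin multiplied by bin number.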

Protein stability index of substitutions, site by site:
S21: C 1.56 | M 1.75 | D 1.9 | Q 1.92 | L 1.59 | T 2.81 | W 2.38 | V 2.35 | N 2.6 | H 1.99 | R 3.24 | P 2.82 | K 2.37 | E 2.35 | G 3.25 | F 2.63
E23: A 3.45 | R 3.15 | C 4.07 | K 2.74 | S 2.15 | D 2.27 | N 1.47 | H 2.21 | M 2.39 | G 1.58 | I 1.88 | V 2.07 | T 1.71 | Y 1.93 | L 2.65 | F 2.3
K24: L 1.93 | Q 2.39 | R 2.44 | I 1.81 | F 1.25 | C 2.09 | H 4 | N 2.13 | P 2.03 | G 2.52 | E 2.53
I18: M 1.95 | G 2.96 | V 3.21 | Q 2.62 | Y 2.3 | E 1.69 | R 2.63 | D 3.33 | N 3.43 | S 3.84 | F 3.02 | T 3.28 | K 3.16 | A 2.81 | W 3.13 | C 2.63
H19: P 3.26 | G 2.02 | A 1.76 | L 1.96 | T 2.63 | F 1.83 | S 3.43 | V 2.51 | N 2.93 | C 2.96 | M 2.79 | E 2.91 | K 2.8 | R 2.42 | I 1.81 | D 3.48 | Q 3.91
N14: K 2.27 | G 2.71 | H 1.77 | R 2.78 | P 2.04 | S 2.07 | V 2.56 | L 1.64 | W 1.35
L15: G 2 | N 2.65 | E 2.71 | H 3.22 | R 2.38 | I 2.64 | M 2.56 | W 1.93 | T 2.47 | D 1.55 | Y 2.29 | F 3.29 | A 3.2 | C 2.81 | K 2.71 | S 3.36 | Q 2.64
D17: G 2.81 | C 2.46 | Y 1.45 | L 1.89 | K 2.32 | P 2.7 | F 1.79 | S 2.33 | H 2.29 | I 1.58 | A 2.31 | M 2.42 | T 2.27 | Q 2.23 | W 1.76 | N 1.62
M20: F 1.72 | T 2.98 | D 2.71 | L 2.58 | E 2.17 | I 2.86 | C 3.03 | Y 3.15 | W 2.55 | N 2.25 | K 2.07 | G 3.51 | R 2.36 | A 3.28 | Q 1.79
L22: M 2.7 | R 3.2 | E 2.98 | S 2.65 | W 1.55 | V 2.09 | A 3.01 | C 3.73 | F 1.98 | Y 2.08 | Q 2.33 | I 2.81 | G 2.4 | H 2.89 | T 3.05 | K 3.54 | N 3.22
E16: I 2.7 | M 1.93 | T 2.21 | K 2.3 | W 1.18 | L 1.47 | G 2.37 | C 1.33 | S 2.25 | H 1.59 | V 2.06 | N 1.94 | A 1.41 | P 2.71 | R 2.12 | D 2.35 | Q 2.15
